Earlier results on two substances are cited in publication PMC2924770.

Where two headings read alike, the source gives them in different places.

The target of data set [1] is hemoglobin (Homo sapiens) (UniProt P69905).
The target is the same in data set [2]. The source holds these as a separate data set.

Kgp (from UniProt B2RLK2): in data set [1], the Kd (in general, a measure of binding affinity in units of concentration) is 3.92 nM.
On to RgpA (from UniProt P28784), for which the Kd in data set [2] is 3.72 nM.
